Measurements: patent US20110045570

Columns and labels:
[1] = target: T1, N-carbobenzoxy-Pro-citrulline-p-nitroanilide
T1 chain: P

[2] = target: T2, N-carboxybenzoxy-Phe-Val-Arg-p-nitroanilide
T2 chain: FVR

[3] = target: T3, N-glutaryl-Ala-Ala-Pro-Leu-p-nitroanilide
T3 chain: AAPL

[4] = target: T4, N-methoxysuccinyl-Ala-Ile-Pro-Met-p-nitroanilide
T4 chain: AIPM

[5] = target: T5, N-p-tosyl-Gly-Pro-Lys-p-nitroanilide
T5 chain: GPK

[6] = target: T6, N-succinyl-Ala-Ala-Ala-p-nitroanilide
T6 chain: AAA

[7] = target: T7, N-succinyl-Ala-Ala-Pro-Met-p-nitroanilide
T7 chain: AAPM

[8] = target: T8, N-succinyl-Ala-Ala-Pro-Phe-p-nitroanilide
T8 chain: AAPF

[9] = target: T9, N-succinyl-Ala-Ala-Val-Ala-p-nitroanilide
T9 chain: AAVA

[10] = target: T10, N-succinyl-Ala-Ala-p-nitroanilide
T10 chain: AA

[11] = target: T11, N-succinyl-Gly-Gly-Phe-p-nitroanilide
T11 chain: GGF

[12] = target: T12, butyroxycarboxy-Leu-Ser-Thr-Arg-p-nitroanilide
T12 chain: LSTR

B1: alkaline protease ALTP (protein)
chain: AQSTPWGVTRVQAPNVWNRGFTGSGVRVAVLDTGIHSSHEDLTVSGGYSVFGDSPYNDVQGHGTHVAGTIAARNNSVGVIGVAYNAQLYAVKVLNNQGSGTLAGIAQGIEWARQNNMHVINMSLGGTSGSTTLQNAVNAAYNAGILVVAAAGNSGNSAGTGDNVGFPARYPNAMAVAATTSGNVRASFSSTGPAVEIAAPGQDINSTYPTNTYRSLNGTSMAAPHVAGVAALLKSARPAVTAAGIRNAMNSTALNLGNSNWYGNGLVRANNALDMVLSY
[1]
  activity to synthetic substrate (p-nitroaniline liberated): It showed activity to ... N-carbobenzoxy-Pro-citrulline-p-nitroanilide (CBZ-Pro-Cit)
[2]
  activity to synthetic substrate (p-nitroaniline liberated): It showed activity to ... N-carboxybenzoxy-Phe-Val-Arg-p-nitroanilide (Z-FVR)
[3]
  Relative activity (%): 91%
[4]
  Relative activity (%): 90%
[5]
  activity to synthetic substrate (p-nitroaniline liberated): It showed activity to ... N-p-tosyl-Gly-Pro-Lys-p-nitroanilide (To-GPK)
[6]
  activity to synthetic substrate (p-nitroaniline liberated): It showed activity to ... N-succinyl-Ala-Ala-Ala-p-nitroanilide (AAA)
[7]
  Relative activity (%): 74%
[8]
  Relative activity (%): 100%
[9]
  Relative activity (%): 4.6%
[10]
  activity to synthetic substrate (p-nitroaniline liberated): It showed activity to ... N-succinyl-Ala-Ala-p-nitroanilide (AA)
[11]
  activity to synthetic substrate (p-nitroaniline liberated): It showed activity to ... N-succinyl-Gly-Gly-Phe-p-nitroanilide (GGF)
Acidic insulin B-chain
  initial cleavage site (LC/MS/MS of digestion fragments): alkaline protease ALTP of the invention first cleaves Leu-Tyr
  peptide bonds cleaved within 24 hours (300 ng enzyme, LC/MS/MS): 26 peptide bonds of 29 peptide bonds except Phe-Val and Thr-Pro-Lys bonds are cleaved within 24 hours
[12]
  activity to synthetic substrate (p-nitroaniline liberated): It showed activity to, besides the foregoing synthetic substrates, butyroxycarboxy-Leu-Ser-Thr-Arg-p-nitroanilide (LSTR)
